B1: H4H16960P (antibody, human IgG4, V domains shown)
VH: QLQLQESGPGLVRPSETLSLTCTVSGGSISSSNYWWGWIRQPPGKGLEWIGSIYYSGITYYNPSLKSRVTISADTSKDQFSLKLRSVTAADTAVYYCAKLEWLRLDFWGQGTTVTVSS
VL: DIQMTQSPSSVSASVGDRVTITCRASQGISSWLVWYQQKPGKVPKLLIYAASSLQSGVPLRFSGSGSGTDFTLTISSLQPEDFATYYCQQAKSFPLTFGQGTRLEIK
B2: H4H17067P2 (antibody, human IgG4, V domains shown)
VH: EVQLVQSGAEVKKPGESLKISCSGSGYRFTNYWIAWVRQMPGKGLEWMGLIHPDDSDIRYSPSFQGQVTFSVDKSINTAYLQWSSLKASDTAMYYCTRQDGILWSHNAWFDPWGQGTLVTVSS
VL: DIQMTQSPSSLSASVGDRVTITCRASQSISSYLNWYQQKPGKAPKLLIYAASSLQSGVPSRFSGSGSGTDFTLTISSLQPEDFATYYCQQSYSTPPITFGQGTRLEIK
B3: H4H16950P (antibody, human IgG4, V domains shown)
VH: QVQLVQSGAEVKKPGASVKVSCKTSGYTFTNYGITWVRQAPGQGLEWMGWISAYNGNTNYAQNVQGRVTMTTDTSTSTAYMEVRSLRSDDTAVYYCARRSSMLHFQHWGQGTLVTVSS
VL: DIVMTQSPDSLAVSLGERATINCKSSQHVLYDSSNENYLAWFQQKPGQPPKLLIYWASTRESGVPDRFSGSGSGTDFTLTISSLQAEDVAVYYCQQYSSAPYTFGQGTKLEIK
B4: H4H17015P (antibody, human IgG4, V domains shown)
VH: QVQLQESGPGLVKPSQTLSLTCTVSGGSISSADHYWSWIRQQPGKGLEWIGYISYRGTTYYNPTLESRVSISVDTFKNQFSLMLHSVTVADTAVYYCAKVLQGLVRFRDYGFDVWGQGTTVTVSS
VL: DIQLTQSPPFLSASVGDRVTITCWASQDISSYLAWYQQNPGKSPKLLIYDAFTLHTGVPSRFSGSGSGTEFTLTISSLQPEDFATFYCQHLYSFPFTFGPGTKVDIK
B5: H4H17045P2 (antibody, human IgG4, V domains shown)
VH: EVQLVESGGGLVQPGVSLRLSCVASGFTFSNYDITWIRQIPGKGLEWVSRISGSGGSTYFADSVKGRFIISRDNSKNTVYMQMNSLRAEDSAVYYCARRDSVLFSMNSWLDPWGQGTLVTVSS
VL: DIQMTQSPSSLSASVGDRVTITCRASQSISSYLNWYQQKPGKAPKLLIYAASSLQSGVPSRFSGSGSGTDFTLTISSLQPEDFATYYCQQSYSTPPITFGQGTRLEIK
B6: H4H16991P (antibody, human IgG4, V domains shown)
VH: QVQLVQSGAEVRKPGASVKVSCKASGYTFTGYYLHWVRQAPGQGLEWMGLINPNTGGTNFAQKFQGRVTMTRDSSISAAYMELSRLRSDDTAVYYCARQHWNRYFDNWGQGTLVTVSS
VL: DIQMTQSPSTLSASVGDRVTITCRASQSVGNWLAWYQQKPGKAPKLLIQEASSIESGVPSRFSGSGSGTEFTLIVSSLQPDDFATYYCQQYNSYSWTFGHGTKVEIK

The values that follow come from patent US20240083986A1 (published 2024).

The target of one experiment is T1, natural Bet v 1 (Indoor, Cat #NA-BV1-1) (Betula verrucosa (European white birch, …, UniProt P15494 2-160)).
T1 construct: Bought natural protein purified from birch pollen; also called nBet v 1
T1 sequence: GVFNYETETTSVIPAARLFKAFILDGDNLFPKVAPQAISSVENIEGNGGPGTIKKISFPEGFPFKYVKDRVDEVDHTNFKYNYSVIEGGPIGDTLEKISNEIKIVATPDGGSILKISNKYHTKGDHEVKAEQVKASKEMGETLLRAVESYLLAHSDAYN
The experiment in a line: SPR Biacore, mAb captured on anti-hFc, 37C.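 Note: purified anti-Bet v 1 monoclonal antibodies, HBS-ET running buffer pH 7.4, rate constants from 1:1 model fit with mass transport limitation, KD and t½ calculated from kinetic constants.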 In general terms: SPR reads the build-up and loss of mass on a sensor chip optically.
Take B1: the “100 nM natural Bet v 1 Bound (RU)” value is 65 RU, the Kd worked out at 2.54 nM, the off-rate (koff) was 0.00168 s⁻¹ and the kon turned out to be 662000 M⁻¹ s⁻¹. Also, the t½ is 6.8 min.

For B2, the “100 nM natural Bet v 1 Bound (RU)” value turned out to be 80 RU, binding was characterised by a dissociation constant (Kd) of 5.48 nM, the koff was 0.00147 s⁻¹ and the on-rate (kon) amounted to 268000 M⁻¹ s⁻¹. The t½ was 7.9 min.

On to B3, for which the “100 nM natural Bet v 1 Bound (RU)” value amounted to 76 RU, the Kd worked out at 8.57 nM, the dissociation rate constant (koff) stood at 0.00121 s⁻¹ and the association rate constant (kon) was determined as 141000 M⁻¹ s⁻¹. The molecule further yielded a t½ of 10 min.

With B4, the “100 nM natural Bet v 1 Bound (RU)” value is 84 RU, the equilibrium dissociation constant (Kd) was 2.7 nM, the koff came to 0.000792 s⁻¹ and the kon was 293000 M⁻¹ s⁻¹. This molecule displayed a t½ of 15 min.

For B5, the “100 nM natural Bet v 1 Bound (RU)” value came out at 90 RU, binding was characterised by a dissociation constant (Kd) of 1.86 nM, the koff was 0.000441 s⁻¹ and the association rate constant (kon) is 237000 M⁻¹ s⁻¹. The molecule further yielded a t½ of 26 min.

Turning to B6, the “100 nM natural Bet v 1 Bound (RU)” value came out at 66 RU, the Kd was found to be 2.16 nM, the koff is 0.00108 s⁻¹ and the on-rate (kon) came out at 500000 M⁻¹ s⁻¹. In addition, the t½ turned out to be 11 min.

The target in another experiment is T1, natural Bet v 1 (Indoor, Cat #NA-BV1-1). The experiment in a line: SPR Biacore, mAb captured on anti-hFc, 25C.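 Note: rate constants from sensorgrams fitted to a 1:1 model with mass transport limitation, KD and t½ derived from kinetic constants, run in HBS-ET buffer at pH 7.4.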
As for B1, the “100 nM natural Bet v 1 Bound (RU)” value came out at 57 RU; the affinity, expressed as Kd, was 1.64 nM; the koff is 0.00069 s⁻¹; the kon worked out at 422000 M⁻¹ s⁻¹. This molecule also showed a t½ of 17 min.

Take B2: the “100 nM natural Bet v 1 Bound (RU)” value is 58 RU, the dissociation constant Kd is 3.56 nM, the koff is 0.000402 s⁻¹ and the association rate constant (kon) amounted to 113000 M⁻¹ s⁻¹. In addition, the t½ is 29 min.

B3: the “100 nM natural Bet v 1 Bound (RU)” value was 58 RU, the Kd stood at 5.23 nM, the off-rate (koff) worked out at 0.000503 s⁻¹ and the on-rate constant (kon) worked out at 96100 M⁻¹ s⁻¹. Further, the t½ was 23 min.

As to B4, the “100 nM natural Bet v 1 Bound (RU)” value was 68 RU, the Kd turned out to be 1.34 nM, the koff is 0.000246 s⁻¹ and the association rate constant (kon) turned out to be 184000 M⁻¹ s⁻¹. The t½ amounted to 47 min.

With B5, the “100 nM natural Bet v 1 Bound (RU)” value is 69 RU, binding was put at a Kd of 1.22 nM, the dissociation rate constant (koff) was 0.000149 s⁻¹ and the association rate constant (kon) stood at 122000 M⁻¹ s⁻¹. The t½ amounted to 78 min.

Regarding B6, the “100 nM natural Bet v 1 Bound (RU)” value is 57 RU, the dissociation constant (Kd) was determined as 1.06 nM, the koff was determined as 0.000312 s⁻¹ and the association rate constant (kon) was 295000 M⁻¹ s⁻¹. The molecule also came in with a t½ of 37 min.

For another experiment, the target named is T2, Alder (Aln g 1, MyBiosource, Cat #MBS1041484) (Alder, UniProt P38948 2-160, limits assumed).
T2 construct: Bought reagent
T2 sequence (looked up): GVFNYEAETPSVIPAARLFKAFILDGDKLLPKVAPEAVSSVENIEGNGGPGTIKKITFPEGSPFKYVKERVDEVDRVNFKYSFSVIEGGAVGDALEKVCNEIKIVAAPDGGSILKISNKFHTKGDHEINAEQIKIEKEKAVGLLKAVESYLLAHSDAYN
The experiment in a line: SPR Biacore, 25C.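 Note: binding of related allergens to purified monoclonal anti-Bet v 1 antibodies by surface plasmon resonance in HEPES-buffered saline pH 7.4, kinetics fitted to a 1:1 model with mass transport.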
Consider B2, for which the binding result is recorded as “no binding (tested: 100 nM)”.

B4: the binding result is reported as “no binding (tested: 100 nM)”.

For the molecule B5, the binding result was “no binding (tested: 100 nM)”.

Take B6: the binding result was “no binding (tested: 100 nM)”.

A further experiment deals with T3, European Hornbeam (Car b 1 isoform 2, MyBiosource, Cat #MBS1043940) (European Hornbeam, UniProt P38950 2-160, limits assumed).
T3 construct: Bought reagent
T3 sequence (looked up): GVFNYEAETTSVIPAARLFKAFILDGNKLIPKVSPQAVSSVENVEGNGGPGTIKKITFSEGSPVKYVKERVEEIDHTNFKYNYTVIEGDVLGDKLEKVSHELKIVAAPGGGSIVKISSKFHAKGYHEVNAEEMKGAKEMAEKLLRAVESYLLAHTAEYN
The experiment in a line: SPR Biacore, 25C.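 Note: binding of related allergens to purified monoclonal anti-Bet v 1 antibodies by surface plasmon resonance in HEPES-buffered saline pH 7.4, kinetics fitted to a 1:1 model with mass transport.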
For the molecule B1, the binding result was “no binding (tested: 100 nM)”.

Take B2: the binding result is recorded as “no binding (tested: 100 nM)”.

B3: the binding result is recorded as “no binding (tested: 100 nM)”.

Consider B4, for which the binding result is on record as “no binding (tested: 100 nM)”.

As for B5, the binding result is given as “no binding (tested: 100 nM)”.

The target in the next experiment is T4, Apple (Mal d 1, MyBiosource, Cat #MBS1224919) (Apple, UniProt P43211 2-159, limits assumed).
T4 construct: Bought reagent
T4 sequence (looked up): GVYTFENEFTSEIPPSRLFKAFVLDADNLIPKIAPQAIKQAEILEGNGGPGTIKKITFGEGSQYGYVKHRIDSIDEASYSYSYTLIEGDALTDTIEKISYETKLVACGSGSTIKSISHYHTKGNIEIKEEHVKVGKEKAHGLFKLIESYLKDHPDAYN
The experiment is described as follows: SPR Biacore, 25C.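 Note: binding of related allergens to purified monoclonal anti-Bet v 1 antibodies by surface plasmon resonance in HEPES-buffered saline pH 7.4, kinetics fitted to a 1:1 model with mass transport.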
Consider B1, for which the binding result was “no binding (tested: 100 nM)”.

As for B2, the binding result is recorded as “no binding (tested: 100 nM)”.

For the molecule B3, the binding result is “no binding (tested: 100 nM)”.

As to B4, the binding result is on record as “no binding (tested: 100 nM)”.

On to B5, for which the binding result is “no binding (tested: 100 nM)”.

For the molecule B6, the binding result is on record as “no binding (tested: 100 nM)”.

A further experiment concerns the target T5, European Hornbeam (Car b 1 isoform 1A & 1B, MyBiosource, Cat #MBS1200018) (European Hornbeam, UniProt P38949 2-160).
T5 construct: Bought reagent
T5 sequence (looked up): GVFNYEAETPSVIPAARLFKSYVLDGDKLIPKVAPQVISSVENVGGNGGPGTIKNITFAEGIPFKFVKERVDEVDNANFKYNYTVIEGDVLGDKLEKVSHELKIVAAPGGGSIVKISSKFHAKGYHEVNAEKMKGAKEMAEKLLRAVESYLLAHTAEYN
The experiment is described as follows: SPR Biacore, 25C.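 Note: binding of related allergens to purified monoclonal anti-Bet v 1 antibodies by surface plasmon resonance in HEPES-buffered saline pH 7.4, kinetics fitted to a 1:1 model with mass transport.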
As to B1, the binding result is given as “no binding (tested: 100 nM)”.

On to B2, for which the binding result is “no binding (tested: 100 nM)”.

With B3, the binding result is given as “no binding (tested: 100 nM)”.

With B4, the binding result is recorded as “no binding (tested: 100 nM)”.

For B5, the binding result is “no binding (tested: 100 nM)”.

Consider B6, for which the binding result is reported as “no binding (tested: 100 nM)”.

Another experiment addresses T6, Celery (Api g 1, MyBiosource, Cat #MBS1171376) (Celery, UniProt P49372 1-154, limits assumed).
T6 construct: Bought reagent
T6 sequence (looked up): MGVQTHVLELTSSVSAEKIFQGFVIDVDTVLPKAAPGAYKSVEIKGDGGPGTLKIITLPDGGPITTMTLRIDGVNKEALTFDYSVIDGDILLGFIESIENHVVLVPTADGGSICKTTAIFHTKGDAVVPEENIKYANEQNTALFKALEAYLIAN
The experiment in a line: SPR Biacore, 25C.
In the case of B1, the binding result is “no binding (tested: 100 nM)”.

For B2, the binding result is recorded as “no binding (tested: 100 nM)”.

Turning to B3, the binding result is on record as “no binding (tested: 100 nM)”.

In the case of B4, the binding result is reported as “no binding (tested: 100 nM)”.

Consider B5, for which the binding result is given as “no binding (tested: 100 nM)”.

In the case of B6, the binding result was “no binding (tested: 100 nM)”.

A word on the Kd: it is the equilibrium constant for the complex coming apart. Usually koff stands for a measure of how fast the partners let go of each other. For orientation: kon means the second-order rate constant of association. Broadly, the t½ is how long it takes for the measured level to halve.
